For the data set the following is noted: pH 8, Thermal, CD, Bis-Tris propane ammonium acetate 0.05 M 0.05 M, reversible: No, whole UniProt chain shown.

B1: wild type, Q8NJY3 (protein)
chain: MLKSALLLGAAAVSVQSASIPTIPANLEPRQIRSLCELYGYWSGNGYELLNNLWGKDTATSGWQCTYLDGTNNGGIQWSTAWEWQGAPDNVKSYPYVGKQIQRGRKISDINSMRTSVSWTYDRTDIRANVAYDVFTARDPDHPNWGGDYELMIWLARYGGIYPIGTFHSQVNLAGRTWDLWTGYNGNMRVYSFLPPSGDIRDFSCDIKDFFNYLERNHGYPAREQNLIVYQVGTECFTGGPARFTCRDFRADLW
For B1, the Tm (usually the temperature at which the thermal transition is half complete) (Trichocladium griseum) was 68.7 °C.

B2: wild type, O00095 (protein)
chain: MKFLQVLPALIPAALAQTSCDQWATFTGNGYTVSNNLWGASAGSGFGCVTAVSLSGGASWHADWQWSGGQNNVKSYQNSQIAIPQKRTVNSISSMPTTASWSYSGSNIRANVAYDLFTAANPNHVTYSGDYELMIWLGKYGDIGPIGSSQGTVNVGGQSWTLYYGYNGAMQVYSFVAQTNTTNYSGDVKNFFNYLRDNKGYNAAGQYVLSYQFGTEPFTGSGTLNVASWTASIN
Turning to B2, the midpoint of thermal melting (Tm) (Hypocrea jecorina) is 54.4 °C.

The values are drawn from FireProtDB (doi:10.1110/ps.03220403).
